Starred links: 1 amine or outer side, 2 acyl side, 3 side chain; linkers in the order of their positions; H or OH if unused. Non-standard residues stand in square brackets, D forms with d. No end group written: not given here. *: point of attachment. sY = N[C@@H](Cc1ccc(OS(=O)(=O)O)cc1)C(=O)O; C18 diacid = O=C(O)CCCCCCCCCCCCCCCCC(=O)*; γGlu = O=C(O)[C@H](CCC(=O)[*:2])N[*:1]; NMeF = CN[C@@H](Cc1ccccc1)C(=O)O; dNMeD = CN[C@H](CC(=O)O)C(=O)O; Nle = CCCC[C@H](N)C(=O)O; AEEA = NCCOCCOCC(=O)O
T1: human cholecystokinin-1 receptor (human), P32238
T1 chain: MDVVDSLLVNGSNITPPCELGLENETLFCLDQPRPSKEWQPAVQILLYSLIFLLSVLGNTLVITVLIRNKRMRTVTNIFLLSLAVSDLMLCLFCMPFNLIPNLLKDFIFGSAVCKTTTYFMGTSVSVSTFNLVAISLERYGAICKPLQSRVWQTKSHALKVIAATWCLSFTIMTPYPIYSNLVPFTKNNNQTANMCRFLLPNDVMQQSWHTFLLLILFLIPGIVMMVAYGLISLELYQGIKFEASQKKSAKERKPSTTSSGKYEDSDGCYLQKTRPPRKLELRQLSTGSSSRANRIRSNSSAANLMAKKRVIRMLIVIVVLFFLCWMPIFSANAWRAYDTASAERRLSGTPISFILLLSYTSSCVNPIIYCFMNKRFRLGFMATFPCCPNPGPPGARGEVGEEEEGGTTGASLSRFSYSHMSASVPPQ

T2: human cholecystokinin-2 receptor (human), P32239
T2 chain: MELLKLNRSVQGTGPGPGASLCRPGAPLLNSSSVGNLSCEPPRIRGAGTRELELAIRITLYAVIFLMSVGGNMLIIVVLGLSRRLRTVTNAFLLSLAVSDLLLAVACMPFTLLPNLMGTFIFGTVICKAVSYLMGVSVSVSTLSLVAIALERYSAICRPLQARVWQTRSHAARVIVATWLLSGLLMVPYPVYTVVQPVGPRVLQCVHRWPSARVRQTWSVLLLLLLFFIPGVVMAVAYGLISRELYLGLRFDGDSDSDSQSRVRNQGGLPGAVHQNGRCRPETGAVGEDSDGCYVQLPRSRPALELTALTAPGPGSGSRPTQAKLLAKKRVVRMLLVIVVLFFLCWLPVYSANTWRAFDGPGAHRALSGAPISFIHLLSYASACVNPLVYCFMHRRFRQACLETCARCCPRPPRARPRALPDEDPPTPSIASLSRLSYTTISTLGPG

T3: human cholecystokinin-2 receptor (human, UniProt P32239 1-447)
T3 construct: whole, on cells; also called CCK-2R; CCK-2 receptor
T3 sequence (looked up): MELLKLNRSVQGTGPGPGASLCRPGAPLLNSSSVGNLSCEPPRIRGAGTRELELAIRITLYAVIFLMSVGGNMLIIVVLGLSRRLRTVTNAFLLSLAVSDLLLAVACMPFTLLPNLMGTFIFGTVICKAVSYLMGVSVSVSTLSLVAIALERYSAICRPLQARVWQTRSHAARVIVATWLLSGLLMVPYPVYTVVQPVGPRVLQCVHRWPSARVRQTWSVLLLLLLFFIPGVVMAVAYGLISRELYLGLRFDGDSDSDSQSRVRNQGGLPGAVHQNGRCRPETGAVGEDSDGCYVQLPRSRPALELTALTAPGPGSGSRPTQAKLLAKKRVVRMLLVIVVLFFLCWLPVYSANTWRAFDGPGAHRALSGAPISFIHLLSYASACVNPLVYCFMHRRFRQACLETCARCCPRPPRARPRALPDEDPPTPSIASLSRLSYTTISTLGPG

T4: human cholecystokinin-1 receptor (human, UniProt P32238 1-428)
T4 construct: whole, on cells; also called CCK-1R; CCK-1 receptor
T4 sequence (looked up): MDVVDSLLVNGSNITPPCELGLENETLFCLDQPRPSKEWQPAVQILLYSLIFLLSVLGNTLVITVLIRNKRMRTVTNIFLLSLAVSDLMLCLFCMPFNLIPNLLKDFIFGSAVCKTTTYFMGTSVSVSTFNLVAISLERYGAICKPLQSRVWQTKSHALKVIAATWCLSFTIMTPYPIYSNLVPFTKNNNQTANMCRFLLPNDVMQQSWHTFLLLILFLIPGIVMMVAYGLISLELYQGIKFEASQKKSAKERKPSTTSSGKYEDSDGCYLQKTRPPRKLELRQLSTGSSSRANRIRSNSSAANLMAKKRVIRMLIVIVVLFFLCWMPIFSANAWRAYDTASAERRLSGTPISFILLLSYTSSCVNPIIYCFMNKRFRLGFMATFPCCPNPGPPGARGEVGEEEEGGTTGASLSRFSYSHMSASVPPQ


Tests used:
[1] = target: T1, human cholecystokinin-1 receptor …; test: cell-based or functional assay
[2] = target: T2, human cholecystokinin-2 receptor …; test: cell-based or functional assay
[3] = target: T1, human cholecystokinin-1 receptor …; test: SPA competition vs [125I]-CCK-8s, membranes
[4] = target: T3, human cholecystokinin-2 receptor; test: SPA competition vs [125I]-CCK-8s, membranes
Method: (§1) CCK receptor binding assays were performed in 96-well Optiplates (Cat #6005290, PerkinElmer, Waltham, Mass., USA) in a total volume of 200 μl per well.
(§2) The plates were sealed and incubated in the dark at +22° C. for 2 hours on a IKA MTS plate shaker (IKA-Werke D-79219 Staufen) set at 300 rpm and thereafter centrifuged at 1500 rpm for 10 minutes in a Heraeus Multifuge 3s centrifuge. SPA bead light emission was measured in a TopCount NXT (PerkinElmer) for 2 min/well after a delay of 60 min.

[5] = target: T4, human cholecystokinin-1 receptor; test: SPA competition vs [125I]-CCK-8s, membranes
Method: as §1, §2

[6] = target: T3, human cholecystokinin-2 receptor; test: cell-based or functional assay
[7] = target: T4, human cholecystokinin-1 receptor; test: cell-based or functional assay

Row | Binder | EC50 (CCK-1R) [1] [nM] | EC50 (CCK-2R) [2] [nM] | IC50 [3] [nM] | IC50 [4] [nM] | IC50 [5] [nM] | EC50 (CCK-2R) [6] [nM] | EC50 (CCK-1R) [7] [nM]
1 | D[sY]LGWQ[DMeAsp][NMeF]-NH2 [Asp-sTyr-Leu-Gly-Trp-Gln-DMeAsp-MePhe-amide] | 0.15 | > 1000 | 0.075 | – | – | – | –
2 | {C18 diacid-γGlu-AEEA-AEEA}-D[sY]AGW[Nle][dNMeD][NMeF]-NH2 (SMILES CCCC[C@H](NC(=O)[C@H](Cc1c[nH]c2ccccc12)NC(=O)CNC(=O)[C@H](C)NC(=O)[C@H](Cc1ccc(OS(=O)(=O)O)cc1)NC(=O)[C@H](CC(=O)O)NC(=O)COCCOCCNC(=O)COCCOCCNC(=O)CC[C@H](NC(=O)CCCCCCCCCCCCCCCCC(=O)O)C(=O)O)C(=O)N(C)[C@H](CC(=O)O)C(=O)N(C)[C@@H](Cc1ccccc1)C(N)=O, X = Nle or Nal) | – | – | – | 280 | 0.068 | 97 | 0.22
3 | {C18 diacid-γGlu-AEEA-AEEA}-D[sY]FGW[Nle][dNMeD][NMeF]-NH2 (SMILES CCCC[C@H](NC(=O)[C@H](Cc1c[nH]c2ccccc12)NC(=O)CNC(=O)[C@H](Cc1ccccc1)NC(=O)[C@H](Cc1ccc(OS(=O)(=O)O)cc1)NC(=O)[C@H](CC(=O)O)NC(=O)COCCOCCNC(=O)COCCOCCNC(=O)CC[C@H](NC(=O)CCCCCCCCCCCCCCCCC(=O)O)C(=O)O)C(=O)N(C)[C@H](CC(=O)O)C(=O)N(C)[C@@H](Cc1ccccc1)C(N)=O, X = Nle or Nal) | – | – | – | 5600 | 0.065 | 390 | 0.41
4 | {C18 diacid-γGlu-AEEA-AEEA}-D[sY][Nle]GW[Nle][dNMeD]W-NH2 (SMILES CCCC[C@H](NC(=O)[C@H](Cc1ccc(OS(=O)(=O)O)cc1)NC(=O)[C@H](CC(=O)O)NC(=O)COCCOCCNC(=O)COCCOCCNC(=O)CC[C@H](NC(=O)CCCCCCCCCCCCCCCCC(=O)O)C(=O)O)C(=O)NCC(=O)N[C@@H](Cc1c[nH]c2ccccc12)C(=O)N[C@@H](CCCC)C(=O)N(C)[C@H](CC(=O)O)C(=O)N[C@@H](Cc1c[nH]c2ccccc12)C(N)=O, X = Nle or Nal) | – | – | – | 3000 | 0.91 | > 1000 | 0.24
5 | {C18 diacid-γGlu-AEEA-AEEA}-D[sY]LGWQ[DMeAsp][NMeF]-NH2 | 0.17 | > 1000 | 0.084 | – | – | – | –
6 | D[sY]LGWA[DMeAsp][NMeF]-NH2 [Asp-sTyr-Leu-Gly-Trp-Ala-DMeAsp-MePhe-amide] | 0.22 | > 1000 | 0.53 | – | – | – | –
7 | {C18 diacid-γGlu-AEEA-AEEA}-[sY][Nle]GW[Nle][dNMeD][NMeF]-NH2 (SMILES CCCC[C@H](NC(=O)[C@H](Cc1ccc(OS(=O)(=O)O)cc1)NC(=O)COCCOCCNC(=O)COCCOCCNC(=O)CC[C@H](NC(=O)CCCCCCCCCCCCCCCCC(=O)O)C(=O)O)C(=O)NCC(=O)N[C@@H](Cc1c[nH]c2ccccc12)C(=O)N[C@@H](CCCC)C(=O)N(C)[C@H](CC(=O)O)C(=O)N(C)[C@@H](Cc1ccccc1)C(N)=O, X = Nle or Nal) | – | – | – | 6500 | 0.039 | 440 | 0.37
8 | {C18 diacid-γGlu-AEEA-AEEA}-D[sY]LGWA[DMeAsp][NMeF]-NH2 | 0.17 | 880 | 0.65 | – | – | – | –

More lines, now with the values ahead:

Row | EC50 (CCK-1R) [1] [nM] | EC50 (CCK-2R) [2] [nM] | IC50 [3] [nM] | IC50 [4] [nM] | IC50 [5] [nM] | EC50 (CCK-2R) [6] [nM] | EC50 (CCK-1R) [7] [nM] | Binder
9 | – | – | – | 3600 | 0.035 | > 1000 | 0.19 | D[sY]SGW[Nle][dNMeD][NMeF]-NH2 (N-terminus assumed; SMILES CCCC[C@H](NC(=O)[C@H](Cc1c[nH]c2ccccc12)NC(=O)CNC(=O)[C@H](CO)NC(=O)[C@H](Cc1ccc(OS(=O)(=O)O)cc1)NC(=O)[C@@H](N)CC(=O)O)C(=O)N(C)[C@H](CC(=O)O)C(=O)N(C)[C@@H](Cc1ccccc1)C(N)=O, X = Nle or Nal) [Asp-sTyr-Ser-Gly-Trp-Nle-DMeAsp-MePhe-amide]
10 | 0.25 | – | 0.042 | – | – | > 1000 | – | D[sY]LGWL[DMeAsp][NMeF]-NH2 [Asp-sTyr-Leu-Gly-Trp-Leu-DMeAsp-MePhe-amide]
11 | 0.34 | – | 0.62 | – | – | > 1000 | – | D[sY]LGWV[DMeAsp][NMeF]-NH2 [Asp-sTyr-Leu-Gly-Trp-Val-DMeAsp-MePhe-amide]
12 | 0.34 | – | 0.11 | – | – | > 1000 | – | D[sY]LGWP[DMeAsp][NMeF]-NH2 [Asp-sTyr-Leu-Gly-Trp-Pro-DMeAsp-MePhe-amide]

From patent US20170008928A1, “NOVEL PEPTIDES AND PEPTIDE DERIVATIVES AND USES THEREOF” (Novo Nordisk A/S, priority 2015, published 2017)
